Binding result and binding signal data for two molecules are collected here from paper PMC4909229, “Characterization of Staphylococcus aureus Primosomal DnaD Protein: Highly Conserved C-Terminal Region Is Crucial for ssDNA and PriA Helicase Binding but Not for DnaA Protein-Binding and Self-Tetrameri”.

Data set [1] deals with T1, SaDnaD1-195 (Staphylococcus aureus subsp. aureus ED98, UniProt Q9EUT0 1-195, del196-228).
T1 sequence: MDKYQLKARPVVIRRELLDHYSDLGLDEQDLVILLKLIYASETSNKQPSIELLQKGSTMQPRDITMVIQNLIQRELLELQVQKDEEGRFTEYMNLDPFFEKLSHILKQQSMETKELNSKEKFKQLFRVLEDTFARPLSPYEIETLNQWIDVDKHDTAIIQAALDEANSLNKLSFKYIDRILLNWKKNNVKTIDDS
Description: EMSA; EMSA: 20 mM Tris-HCl pH 8.0, 100 mM NaCl, 25 C, 30 min, 1.7 nM DNA, gel at 4 C in TBE; fluorescence: 20 mM Tris-HCl pH 8.0, 200 or 500 mM NaCl, 0.1 uM tetramer. As to conditions: protein: recombinant; tags: C-terminal His tag (pET21e); chain copies: 4; label: 5'-32P. A general note: A gel shift assay detects complexes by their altered migration in electrophoresis.

For data set [2], the target named is T2, SaDnaD1-200 (Staphylococcus aureus subsp. aureus ED98, UniProt Q9EUT0 1-200, del201-228).
T2 sequence: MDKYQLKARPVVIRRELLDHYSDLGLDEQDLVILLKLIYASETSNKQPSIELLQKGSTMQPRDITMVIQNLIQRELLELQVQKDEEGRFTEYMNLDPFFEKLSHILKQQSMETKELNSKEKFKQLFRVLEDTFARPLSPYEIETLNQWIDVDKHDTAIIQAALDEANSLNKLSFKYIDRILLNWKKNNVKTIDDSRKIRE
Described as above. The note with it: protein: recombinant; tags: C-terminal His tag (pET21e); chain copies: 4; label: 5'-32P.

Data set [3] deals with T1, SaDnaD1-195. As to the kind of experiment: tryptophan fluorescence quenching; DNA:protein ratio 1; EMSA: 20 mM Tris-HCl pH 8.0, 100 mM NaCl, 25 C, 30 min, 1.7 nM DNA, gel at 4 C in TBE; fluorescence: 20 mM Tris-HCl pH 8.0, 200 or 500 mM NaCl, 0.1 uM tetramer. As to conditions: protein: recombinant; tags: C-terminal His tag (pET21e); chain copies: 4; label: 5'-32P (EMSA); unlabeled in fluorescence titration.

The next data set deals with T3, SaDnaD1-204 (Staphylococcus aureus subsp. aureus ED98, UniProt Q9EUT0 1-204, del205-228).
T3 sequence: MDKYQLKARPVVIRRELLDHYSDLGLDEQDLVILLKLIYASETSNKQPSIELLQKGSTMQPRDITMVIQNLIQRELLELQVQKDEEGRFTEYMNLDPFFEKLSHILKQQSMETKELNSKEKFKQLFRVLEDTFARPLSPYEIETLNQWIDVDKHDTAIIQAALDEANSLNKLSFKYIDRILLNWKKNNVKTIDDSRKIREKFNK
Described as above. The note with it: protein: recombinant; tags: C-terminal His tag (pET21e); chain copies: 4; label: 5'-32P (EMSA); unlabeled in fluorescence titration.

In data set [4] the target is T2, SaDnaD1-200. Described as above. As to conditions: protein: recombinant; tags: C-terminal His tag (pET21e); chain copies: 4; label: 5'-32P (EMSA); unlabeled in fluorescence titration.

As for TTTTTTTTTTTTTTTTTTTTTTTTTTTTTTTTTTTTTTTT (ssDNA) [dT40], the binding result with SaDnaD1-195 [1] and in the data set with SaDnaD1-200 [2] was “no binding” each time.

B1: dT65 (ssDNA)
DNA: TTTTTTTTTTTTTTTTTTTTTTTTTTTTTTTTTTTTTTTTTTTTTTTTTTTTTTTTTTTTTTTTT
Regarding B1, the figures for the binding signal with SaDnaD1-195 [3], in the data set with SaDnaD1-204 and with SaDnaD1-200 [4] were < 5 % quenching, ~20 % quenching and < 10 % quenching, respectively.
